Experimental data as given in US20060024291A1 (DOHENY EYE INSTITUTE, published 2006).

Molecular target: T1, protocadherin-42 (human, UniProt Q08174 58-1060)
T1 construct: Full length human cDNA expressed in mouse L cells (pRC/RSV-pc42); tested on the transfected cells or in their extracts; also called pc42; human pc42
T1 sequence: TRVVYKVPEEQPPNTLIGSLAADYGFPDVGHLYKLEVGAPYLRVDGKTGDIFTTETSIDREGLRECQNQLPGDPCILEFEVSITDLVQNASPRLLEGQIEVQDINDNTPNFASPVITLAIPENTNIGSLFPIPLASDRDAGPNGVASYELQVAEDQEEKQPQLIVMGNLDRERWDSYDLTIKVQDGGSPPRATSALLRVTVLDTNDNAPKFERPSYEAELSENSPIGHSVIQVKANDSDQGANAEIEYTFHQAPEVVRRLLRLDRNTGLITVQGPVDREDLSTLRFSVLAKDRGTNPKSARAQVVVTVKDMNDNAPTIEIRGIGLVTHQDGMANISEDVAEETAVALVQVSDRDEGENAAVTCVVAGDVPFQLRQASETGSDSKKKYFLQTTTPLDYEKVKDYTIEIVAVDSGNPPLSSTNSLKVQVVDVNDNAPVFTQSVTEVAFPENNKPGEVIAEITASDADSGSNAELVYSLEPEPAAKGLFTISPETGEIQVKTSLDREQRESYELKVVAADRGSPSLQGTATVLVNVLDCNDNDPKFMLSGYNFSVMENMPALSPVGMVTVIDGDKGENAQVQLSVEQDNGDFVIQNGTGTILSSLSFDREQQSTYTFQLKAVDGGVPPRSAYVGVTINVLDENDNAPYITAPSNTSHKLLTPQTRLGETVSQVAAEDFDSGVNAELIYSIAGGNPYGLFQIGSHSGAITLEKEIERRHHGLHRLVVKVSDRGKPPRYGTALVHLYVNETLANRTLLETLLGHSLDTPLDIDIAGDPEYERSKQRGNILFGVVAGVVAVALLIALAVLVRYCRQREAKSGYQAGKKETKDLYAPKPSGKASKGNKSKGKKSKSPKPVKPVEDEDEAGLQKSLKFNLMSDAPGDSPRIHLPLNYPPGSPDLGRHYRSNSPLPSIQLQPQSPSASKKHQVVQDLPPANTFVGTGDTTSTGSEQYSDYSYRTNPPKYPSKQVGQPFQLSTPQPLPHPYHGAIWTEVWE
Experiment: mixed cell aggregation assay, DiO-labelled pc43 transfectants with unlabelled pc42 transfectants
Description: The cell aggregation properties of the transfected L cells expressing protocadherin proteins were examined. Transfected L cells were cultured in Dulbecco's Modified Eagles Medium (DMEM) (Gibco, Grand Island, N.Y.) supplemented with 10% fetal bovine serum at 37° C. in 5% CO₂. Cells grown near confluence were treated with 0.01% trypsin in the presence of 1 mM EGTA for 25 minutes on a rotary shaker at 37° C. and collected by centrifugation. The cells were washed three times with Ca²⁺ free HEPES-buffered saline (HBS) after adding soybean trypsin inhibitor, and were resuspended in HBS containing 1% BSA. The cell aggregation assay [Urushihara et al., Dev. Biol., 70: 206-216 (1979)] was performed by incubating the resuspended cells in a 1:1 mixture of DMEM and HBS containing 1% BSA, 2 mM CaCl₂ and 20 μg/ml of deoxyribonucelease on a rotary shaker at 37° C. for 30 minutes to 6 hours.
This is in contrast to the cell aggregation that occurs with classic cadherins in similar experiments (Nagafuchi et al., supra, and Hatta et al., supra). […] Similar results were obtained when single cell suspensions of transfected cells were prepared by trypsin treatment in the presence of Ca²⁺. No re-aggregation was observed under the same conditions when untransfected L cells or L cells transfected with pRC/RSV vector alone were tested.

- binding result: no binding
B1: protocadherin-43 (receptor)
chain: VIHYEIPEEREKGFAVGNVVANLGLDLGSLSARRFPVVSGASRRFFEVNRETGEMFVNDRLDREELCGTLPSCTVTLELVVENPLELFSVEVVIQDINDNNPAFPTQEMKLEISEAVAPGTRFPLESAHDPDLGSNSLQTYELSRNEYFALRVQTREDSTKYAELVLERALDREREPSLQLVLTALDGGTPALSASLPIHIKVLDANDNAPVFNQSLYRARVPGGCTSGTRVVQVLATDLDEGPNGEIIYSFGSHNRAGVRQLFALDLVTGMLTIKGRLDFEDTKLHEIYIQAKDKGANPEGAHCKVLVEVVDVNDNAPEITVTSVYSPVPEDASGTVIALLSVTDLDAGENGLVTCEVPPGLPFSLTSSLKNYFTLKTSADLDRETVPEYNLSITARDAGTPSLSALTIVRVQVSDINDNPPQSSQSSYDVYIEENNLPGAPILNLSVWDPDAPQNARLSFFLLEQGAETGLVGRYFTINRDNGIVSSLVPLDYEDRREFELTAHISDGGTPVLATNISVNIFVTDRNDNAPQVLYPRPGGSSVEMLPRGTSAGHLVSRVVGWDADAGHNAWLSYSLFGSPNQSLFAIGLHTGQISTARPVQDTDSPRQTLTVLIKDNGEPSLSTTATLTVSVTEDSPEARAEFPSGSAPREQKKNLTFYLLLSLILVSVGFVVTVFGVIIFKVYKWKQSRDLYRAPVSSLYRTPGPSLHADAVRGGLMSPHLYHQVYLTTDSRRSDPLLKKPGAASPLASRQNTLRSCDPVFYRQVLGAESAPPGQQAPPNTDWRFSQAQRPGTSGSQNGDDTGTWPNNQFDTEMLQAMILASASEAADGSSTLGGGAGTMGLSARYGPQFTLQHVPDYRQNVYIPGSNAH
notes: Full length human cDNA expressed in mouse L cells (pRC/RSV-pc43); tested on the transfected cells or in their extracts; also endogenous pc43 in human tissue sections; also called pc43; human pc43
